The nature of series [1]: hydrophobicity by reverse phase analytical HPLC. The class given is physicochemical. As to conditions: retention time in reverse phase HPLC column (C18, 55 °C).
The nature of series [2]: in vivo. As to conditions: Balb/c, mouse, total radioactivity.
For series [3] the following is noted: tail vein injection, 0.25-24 h.

From PMC3410980 (Bioconjugate chemistry, 2012) come the findings set out here.

Molecules are shown by their SMILES. Non-standard residues stand in square brackets, D forms with d. Residues, ends and D or L forms follow the SMILES beside them. *: point of attachment. DOTA = O=C(O)CN1CCN(CC(=O)O)CCN(CC(=O)*)CCN(CC(=O)O)CC1; Nspe = C[C@H](NCC(=O)O)c1ccccc1; Nphe = O=C(O)CNCc1ccccc1; Nlys = NCCCCNCC(=O)O

For `NCCCCN(CC(=O)N(CC(=O)N(CC(=O)N(CCCCN)CC(=O)N(CC(=O)N(CC(=O)N(CCCCN)CC(=O)N(CC(=O)N(CC(=O)N(CCCCN)CC(=O)N(CC(=O)N(CC(N)=O)Cc1ccccc1)Cc1ccccc1)Cc1ccccc1)Cc1ccccc1)Cc1ccccc1)Cc1ccccc1)Cc1ccccc1)Cc1ccccc1)C(=O)CN1CCN(CC(=O)O)CCN(CC(=O)O)CCN(CC(=O)O)CC1` [Compound 2] ({DOTA}-[Nlys][Nphe][Nphe][Nlys][Nphe][Nphe][Nlys][Nphe][Nphe][Nlys][Nphe][Nphe]-NH2), the “hydrophobicity (tR in minutes)” value in series [1] was 24.1 min.

For the compound `C[C@@H](c1ccccc1)N(CC(N)=O)C(=O)CN(CCCCN)C(=O)CN(C(=O)CN(C(=O)CN(CCCCN)C(=O)CN(C(=O)CN(C(=O)CN(CCCCN)C(=O)CN(C(=O)CN(C(=O)CN(CCCCN)C(=O)CN1CCN(CC(=O)O)CCN(CC(=O)O)CCN(CC(=O)O)CC1)[C@@H](C)c1ccccc1)[C@@H](C)c1ccccc1)[C@@H](C)c1ccccc1)[C@@H](C)c1ccccc1)[C@@H](C)c1ccccc1)[C@@H](C)c1ccccc1` [Compound 3] ({DOTA}-[Nlys][Nspe][Nspe][Nlys][Nspe][Nspe][Nlys][Nspe][Nspe][Nlys][Nspe]-NH2), in series [1], the “hydrophobicity (tR in minutes)” value worked out at 23.9 min.

As for `C[C@@H](c1ccccc1)N(CC(N)=O)C(=O)CN(C(=O)CN(CCCCN)C(=O)CN(C(=O)CN(C(=O)CN(CCCCN)C(=O)CN(C(=O)CN(C(=O)CN(CCCCN)C(=O)CN(C(=O)CN(C(=O)CN(CCCCN)C(=O)CN1CCN(CC(=O)O)CCN(CC(=O)O)CCN(CC(=O)O)CC1)[C@@H](C)c1ccccc1)[C@@H](C)c1ccccc1)[C@@H](C)c1ccccc1)[C@@H](C)c1ccccc1)[C@@H](C)c1ccccc1)[C@@H](C)c1ccccc1)[C@@H](C)c1ccccc1` [^64Cu-1, metal not drawn] ({DOTA}-[Nlys][Nspe][Nspe][Nlys][Nspe][Nspe][Nlys][Nspe][Nspe][Nlys][Nspe][Nspe]-NH2), the tissue uptake at 2 h in series [2] (kidney, iv) turned out to be 14.4 ± 0.9 %ID/g; in series [2] (liver, iv), 138 ± 13.4 %ID/g; in series [2] (stomach, po), 4.82 ± 1.44 %ID/g. For the same compound, the tissue uptake at 24 h in series [2] (liver, iv) worked out at 95.6 ± 10.5 %ID/g; in series [2] (stomach, po), 0.54 ± 0.22 %ID/g. Moreover, in series [3], the “excretion route, kidney activity and clearance seen by PET” value (“excretion route” below) was “main excretion route is likely hepatic”.

Take `NCCCCN(CC(=O)N(CC(=O)N(CC(=O)N(CCCCN)CC(=O)N(CC(=O)N(CC(=O)N(CCCCN)CC(=O)N(CC(=O)N(CC(=O)N(CCCCN)CC(=O)N(CC(=O)N(CC(N)=O)Cc1ccccc1)Cc1ccccc1)Cc1ccccc1)Cc1ccccc1)Cc1ccccc1)Cc1ccccc1)Cc1ccccc1)Cc1ccccc1)C(=O)CN1CCN(CC(=O)O)CCN(CC(=O)O)CCN(CC(=O)O)CC1` [^64Cu-2, metal not drawn] ({DOTA}-[Nlys][Nphe][Nphe][Nlys][Nphe][Nphe][Nlys][Nphe][Nphe][Nlys][Nphe][Nphe]-NH2): the tissue uptake at 2 h in series [2] (kidney, iv) was found to be 12.6 ± 2.3 %ID/g. Moreover, in series [2] (liver, iv), the tissue uptake at 2 h is 125 ± 16.8 %ID/g and the tissue uptake at 24 h was 72.2 ± 11.3 %ID/g. Moreover, the “excretion route” value in series [3] was “main excretion route is likely hepatic”.

For `C[C@@H](c1ccccc1)N(CC(N)=O)C(=O)CN(CCCCN)C(=O)CN(C(=O)CN(C(=O)CN(CCCCN)C(=O)CN(C(=O)CN(C(=O)CN(CCCCN)C(=O)CN(C(=O)CN(C(=O)CN(CCCCN)C(=O)CN1CCN(CC(=O)O)CCN(CC(=O)O)CCN(CC(=O)O)CC1)[C@@H](C)c1ccccc1)[C@@H](C)c1ccccc1)[C@@H](C)c1ccccc1)[C@@H](C)c1ccccc1)[C@@H](C)c1ccccc1)[C@@H](C)c1ccccc1` [^64Cu-3, metal not drawn] ({DOTA}-[Nlys][Nspe][Nspe][Nlys][Nspe][Nspe][Nlys][Nspe][Nspe][Nlys][Nspe]-NH2), the tissue uptake at 2 h in series [2] (kidney, iv) was roughly 31.2 %ID/g; in series [2] (liver, iv), 56.7 ± 1.8 %ID/g. Moreover, the tissue uptake at 24 h in series [2] (kidney, iv) was determined as 19.3 ± 2.6 %ID/g; in series [2] (liver, iv), 47.3 ± 4.4 %ID/g. In addition, for the setting “administered orally”, the “oral absorption / bioavailability” value is recorded as “poor bioavailability”. Also, the “lower liver uptake relative to ^64Cu-1” value (intravenous) was “more than 50%”. Moreover, the “excretion route” value in series [3] is “highest kidney activity of all three peptoids”.

Broadly, the tissue uptake is the percentage of the injected dose found per gram of tissue.
